# Laboratory results from patent US11130803B2, “Isoform-selective TGFβ1 inhibitors and use thereof” (Scholar Rock, Inc., priority 2018, dated 2021).
# Where a chain is given by its changes, count along the chain named.
# B1: Ab11: monoclonal antibody; VH SEQ ID NO: 239, VL SEQ ID NO: 241 (antibody, V domains shown)
# VH: EVQLLESGGGLVQPGGSLRLSCAASGFTFRNYAMSWVRQAPGKGLEWVSSISGSGGATYYADSVKGRFTISRDNSKNTLYLQMNSLRAEDTAVYYCARVSSGHWDFDYWGQGTLVTVSS
# VL: DIQLTQSPSSLSASVGDRVTITCRASQSISSYLNWYQQKPGKAPKLLIYAASNLQSGVPSRFSGSGSGTDFTLTISSLQPEDFATYYCQQTYTVPLTFGGGTKVEIK
# B2: Ab20: monoclonal antibody; VH SEQ ID NO: 251, VL SEQ ID NO: 241 (antibody, V domains shown)
# VH: B1 VH with R30S, N31A, S35T, S50A, A57V, F106Y
# VL: B1 VL
# B3: Ab22: monoclonal antibody; VH SEQ ID NO: 130, VL SEQ ID NO: 15 (antibody, V domains shown)
# VH: EVQLVESGGGLVQPGGSLRLSCAASGFTFGSFSMNWVRQAPGKGLEWVSYIHSDASTIYYADSVKGRFTISRDNAKNSLYLQMNSLRAEDTAVYYCARGVLDYGDMLDPWGQGTLVTVSS
# VL: DIQMTQSPSSLSASVGDRVTITCQASQDITNYLNWYQQKPGKAPKLLIYDASNLETGVPSRFSGSGSGTDFTFTISSLQPEDIATYYCQQADNHPPWTFGGGTKVEIK
# B4: Ab24: monoclonal antibody; VH SEQ ID NO: 132, VL SEQ ID NO: 15 (antibody, V domains shown)
# VH: B3 VH with G16R, G30S, S33A, N35Y, H52S, S53P
# VL: B3 VL
# B5: Ab26: monoclonal antibody; VH SEQ ID NO: 134, VL SEQ ID NO: 15 (antibody, V domains shown)
# VH: B3 VH with G30S, N35D, H52S, S53P, S78T
# VL: B3 VL
# B6: Ab29: monoclonal antibody; VH SEQ ID NO: 137, VL SEQ ID NO: 15 (antibody, V domains shown)
# VH: B3 VH with G16R, G30S, S33A, H52S, S53P, D62G, A97V, G99A
# VL: B3 VL
# B7: Ab30: monoclonal antibody; VH SEQ ID NO: 138, VL SEQ ID NO: 15 (antibody, V domains shown)
# VH: B3 VH with G30S, N35D, H52S, S53P, V100T
# VL: B3 VL
# B8: Ab31: monoclonal antibody; VH SEQ ID NO: 139, VL SEQ ID NO: 15 (antibody, V domains shown)
# VH: B3 VH with G30S, N35D, H52S, S53P, S78T, G99A
# VL: B3 VL
# B9: Ab32: monoclonal antibody; VH SEQ ID NO: 140, VL SEQ ID NO: 15 (antibody, V domains shown)
# VH: B3 VH with G30S, H52S, S53P, D54S, S56D, S78T, L101W, Y103M
# VL: B3 VL
# B10: Ab33: monoclonal antibody; VH SEQ ID NO: 141, VL SEQ ID NO: 15 (antibody, V domains shown)
# VH: B3 VH with G30S, H52S, S53P, D54S, S56D, S78T, R98H
# VL: B3 VL
# B11: Ab12: monoclonal antibody; VH SEQ ID NO: 237, VL SEQ ID NO: 241 (antibody, V domains shown)
# VH: B1 VH with E1Q, L5V, L11V, G16R, R30S, N31D, S35V, S50A, G56F, A57T
# VL: B1 VL
# B12: Ab19: monoclonal antibody; VH SEQ ID NO: 250, VL SEQ ID NO: 241 (antibody, V domains shown)
# VH: QVQLVESGGGVVQPGRSLRLSCAASGFTFSSFAMTWVRQAPGKGLEWVSAISGSGAATYFADSVKGRFTISRDNSKNTLYLQMNSLRAEDTAVYYCARVSSGHWDFDEWGQGTLVTVSS
# VL: B1 VL
# Biological target: T1, hLTBP3-proTGFβ1 (Homo sapiens, UniProt P01137)
# T1 construct: made in house; host or cells: Expi293F cells, transient co-transfection
# Test: MSD-SET solution equilibrium titration binding
# Settings: MSD-SET at equilibrium, hIgG4, human complex; in M
# Excerpt: (§1) Solution Equilibrium Titration (SET): The SET is an assay whereby binding between two molecules (such as an antigen and an antibody that binds the antigen) can be measured at equilibrium in a solution. For example, Meso-Scale Discovery (“MSD”)-based SET, or MSD-SET, is a useful mode of determining dissociation constants for particularly high-affinity protein-protein interactions at equilibrium, such as picomolar-affinity antibodies binding to their antigens (see, for example: Ducata et al. (2015) J Biomolecular Screening 20(10): 1256-1267). The SET-based assays are particularly useful for determining KD values of antibodies with sub-nanomolar (e.g., picomolar) affinities.
# (§2) In view of this, it is contemplated that assays that measure binding affinities of such antibodies at equilibrium may more accurately represent the mode of target engagement in vivo. Thus, MSD-SET-based binding assays (or other suitable assays) may be performed, as exemplified in Table 9 below.
# (§3) Solution equilibrium titration (“SET”) is an assay whereby binding between two molecules (such as an antigen and an antibody that binds the antigen) can be measured at equilibrium in a solution. For example, Meso-Scale Discovery (“MSD”)-based SET, or MSD-SET, is a useful mode of determining dissociation constants for particularly high-affinity protein-protein interactions at equilibrium (see, for example: Ducata et al. (2015) J Biomolecular Screening 20(10): 1256-1267). The SET-based assays are particularly useful for determining KD values of antibodies with sub-nanomolar (e.g., picomolar) affinities.
# (§4) For solution equilibrium titration-based binding assays, protein complexes that comprise one of the presenting molecules such as those shown above may be employed as antigen (presenting molecule-TGFβ1 complex, or an LLC). Test antibodies are allowed to form antigen-antibody complex in solution. Antigen-antibody reaction mixtures are incubated to allow an equilibrium to be reached; the amount of the antigen-antibody complex present in the assay reactions can be measured by suitable means well known in the art. As compared to BLI-based assays, SET-based assays are less affected by on/off rates of the antigen-antibody complex, allowing sensitive detection of very high affinity interactions.
# T1 sequence (P01137 30-390): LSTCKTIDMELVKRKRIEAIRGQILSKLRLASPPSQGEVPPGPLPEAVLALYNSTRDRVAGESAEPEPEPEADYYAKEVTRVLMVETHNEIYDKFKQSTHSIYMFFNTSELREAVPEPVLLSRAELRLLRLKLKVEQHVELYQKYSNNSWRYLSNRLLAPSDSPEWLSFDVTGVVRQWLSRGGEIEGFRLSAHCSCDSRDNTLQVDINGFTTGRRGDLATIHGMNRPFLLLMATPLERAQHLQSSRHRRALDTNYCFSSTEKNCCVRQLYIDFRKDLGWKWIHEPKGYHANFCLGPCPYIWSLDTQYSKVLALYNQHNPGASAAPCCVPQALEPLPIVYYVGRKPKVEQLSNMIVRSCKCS
# T1 sequence (Q9NS15 866-1039 partner limits assumed): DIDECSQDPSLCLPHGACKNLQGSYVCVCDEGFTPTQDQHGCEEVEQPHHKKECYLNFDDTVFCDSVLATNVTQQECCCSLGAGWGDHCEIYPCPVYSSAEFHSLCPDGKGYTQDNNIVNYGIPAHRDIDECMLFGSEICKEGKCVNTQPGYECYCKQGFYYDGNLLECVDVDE
row,Molecule,"(C) hLTBP3, Matrix-associated proTGFβ1 KD"
1,B1,1.20E−09
2,B2,1.80E−10
3,B3,3.30E−11
4,B4,2.10E−11
5,B5,2.30E−11
6,B6,1.10E−11
7,B7,2.60E−11
8,B8,1.40E−11
9,B9,2.60E−11
10,B10,7.00E−12
11,B11,6.60E−10
12,B12,2.70E−09

# Biological target: T2, hLRRC33-proTGFβ1 (Homo sapiens, UniProt P01137)
# T2 construct: made in house
# Test: MSD-SET solution equilibrium titration binding
# Settings: MSD-SET at equilibrium, hIgG4, human complex; in M
# Excerpt: as §1, §2, §3, §4
# T2 sequence (P01137 30-390): as the sequence (P01137 30-390) above
# T2 sequence (Q86YC3 19-650 partner limits assumed): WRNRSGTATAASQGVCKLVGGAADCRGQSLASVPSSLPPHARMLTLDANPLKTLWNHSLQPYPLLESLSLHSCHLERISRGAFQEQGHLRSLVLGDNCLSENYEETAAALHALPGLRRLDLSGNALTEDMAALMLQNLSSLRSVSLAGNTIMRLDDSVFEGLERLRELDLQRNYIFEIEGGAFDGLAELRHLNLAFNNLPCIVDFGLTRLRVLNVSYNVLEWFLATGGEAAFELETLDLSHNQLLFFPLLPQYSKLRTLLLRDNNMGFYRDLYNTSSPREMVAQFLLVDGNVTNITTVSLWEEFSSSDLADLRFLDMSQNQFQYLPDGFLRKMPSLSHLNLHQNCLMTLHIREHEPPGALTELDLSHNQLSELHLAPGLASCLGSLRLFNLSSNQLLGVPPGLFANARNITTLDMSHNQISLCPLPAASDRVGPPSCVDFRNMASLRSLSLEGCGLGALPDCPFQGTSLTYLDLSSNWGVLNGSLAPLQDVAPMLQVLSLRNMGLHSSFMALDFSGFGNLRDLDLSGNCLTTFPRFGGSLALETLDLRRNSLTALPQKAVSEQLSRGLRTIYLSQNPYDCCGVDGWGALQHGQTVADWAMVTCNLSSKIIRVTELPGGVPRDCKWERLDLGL
row,Molecule,"(F) hLRRC33, Cell-associated proTGFβ1 KD"
1,B1,6.30E−09
2,B2,1.60E−09
3,B3,2.00E−10
4,B4,1.80E−10
5,B5,1.30E−10
6,B6,4.30E−11
7,B7,1.40E−10
8,B8,9.60E−11
9,B9,8.70E−11
10,B10,4.60E−11
11,B11,3.20E−09
12,B12,5.70E−09

# Biological target: T3, hGARP-proTGFβ1 (Homo sapiens, UniProt P01137)
# T3 construct: made in house
# Test: MSD-SET solution equilibrium titration binding
# Settings: MSD-SET at equilibrium, hIgG4, human complex; in M
# Excerpt: as §1, §2, §3, §4
# T3 sequence (P01137 30-390): as the sequence (P01137 30-390) above
# T3 sequence (Q14392 20-627 partner limits assumed): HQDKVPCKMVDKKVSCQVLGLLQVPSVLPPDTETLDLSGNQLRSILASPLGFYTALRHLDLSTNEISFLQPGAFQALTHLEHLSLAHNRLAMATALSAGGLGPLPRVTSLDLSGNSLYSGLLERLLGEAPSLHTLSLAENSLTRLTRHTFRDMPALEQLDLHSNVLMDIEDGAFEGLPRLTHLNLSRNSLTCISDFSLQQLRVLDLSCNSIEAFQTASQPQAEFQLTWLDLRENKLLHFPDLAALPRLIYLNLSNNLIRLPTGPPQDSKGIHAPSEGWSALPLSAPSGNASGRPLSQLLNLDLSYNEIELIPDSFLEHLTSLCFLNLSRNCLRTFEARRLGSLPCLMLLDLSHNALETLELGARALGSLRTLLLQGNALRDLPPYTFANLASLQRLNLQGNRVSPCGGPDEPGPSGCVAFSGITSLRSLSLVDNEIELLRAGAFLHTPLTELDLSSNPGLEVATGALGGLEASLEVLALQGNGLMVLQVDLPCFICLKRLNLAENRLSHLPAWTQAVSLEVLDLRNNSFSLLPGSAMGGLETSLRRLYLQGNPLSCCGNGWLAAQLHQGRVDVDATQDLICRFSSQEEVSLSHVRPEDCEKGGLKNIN
row,Molecule,"(E) hGARP, Cell-associated proTGFβ1 KD"
1,B1,3.00E−09
2,B2,1.10E−09
3,B3,2.70E−11
4,B4,1.90E−11
5,B5,1.40E−11
6,B6,5.50E−12
7,B7,2.20E−11
8,B8,1.90E−11
9,B9,1.50E−11
10,B10,7.80E−12
11,B11,1.70E−09
12,B12,3.80E−09

# Biological target: T4, hLTBP1-proTGFβ1 (Homo sapiens, UniProt P01137)
# T4 construct: made in house; host or cells: Expi293F cells, transient co-transfection
# Test: MSD-SET solution equilibrium titration binding
# Settings: MSD-SET at equilibrium, hIgG4, human complex; in M
# Excerpt: as §1, §2, §3, §4
# T4 sequence (P01137 30-390): as the sequence (P01137 30-390) above
# T4 sequence (Q14766 873-1507 partner): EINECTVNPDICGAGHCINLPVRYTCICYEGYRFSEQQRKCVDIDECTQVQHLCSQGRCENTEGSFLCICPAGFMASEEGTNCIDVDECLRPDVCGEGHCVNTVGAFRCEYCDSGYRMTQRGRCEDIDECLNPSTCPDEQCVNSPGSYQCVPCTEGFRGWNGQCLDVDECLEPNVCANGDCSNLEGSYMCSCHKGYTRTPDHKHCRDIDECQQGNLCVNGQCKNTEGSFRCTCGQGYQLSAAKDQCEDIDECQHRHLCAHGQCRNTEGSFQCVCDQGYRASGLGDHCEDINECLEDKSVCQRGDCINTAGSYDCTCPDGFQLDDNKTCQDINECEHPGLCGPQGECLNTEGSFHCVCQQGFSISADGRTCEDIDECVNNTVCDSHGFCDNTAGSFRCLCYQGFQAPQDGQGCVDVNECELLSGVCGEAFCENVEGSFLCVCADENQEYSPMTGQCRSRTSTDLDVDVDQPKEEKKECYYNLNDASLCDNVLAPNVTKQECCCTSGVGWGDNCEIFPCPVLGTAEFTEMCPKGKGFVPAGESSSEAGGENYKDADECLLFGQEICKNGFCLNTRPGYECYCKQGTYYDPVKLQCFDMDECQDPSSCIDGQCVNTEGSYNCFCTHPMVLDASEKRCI
row,Molecule,"(B) hLTBP1, Matrix-associated proTGFβ1 KD"
1,B1,1.20E−09
2,B2,2.20E−10
3,B3,5.00E−11
4,B4,2.40E−11
5,B5,2.80E−11
6,B6,1.20E−11
7,B7,3.10E−11
8,B8,1.90E−11
9,B9,3.70E−11
10,B10,1.10E−11
11,B11,7.80E−10
12,B12,2.10E−09
